According to paper doi:10.1101/438713:

Target: PvdJ-eGFP (Pseudomonas aeruginosa PAO1)
Test: FRET or BRET

B1: PvdA-mCherry (enzyme)
chain: MTQATATAVVHDLIGVGFGPSNIALAIALQERAQAQGALEVLFLDKQGDYRWHGNTLVSQSELQISFLKDLVSLRNPTSPYSFVNYLHKHDRLVDFINLGTFYPCRMEFNDYLRWVASHFQEQSRYGEEVLRIEPMLSAGQVEALRVISRNADGEELVRTTRALVVSPGGTPRIPQVFRALKGDGRVFHHSQYLEHMAKQPCSSGKPMKIAIIGGGQSAAEAFIDLNDSYPSVQADMILRASALKPADDSPFVNEVFAPKFTDLIYSREHAERERLLREYHNTNYSVVDTDLIERIYGVFYRQKVSGIPRHAFRCMTTVERATATAQGIELALRDAGSGELSVETYDAVILATGYERQLHRQLLEPLAEYLGDHEIGRDYRLQTDERCKVAIYAQGFSQASHGLSDTLLSVLPVRAEEISGSLYQHLKPGTAARALHEHALAS
- shortening of the donor fluorescence lifetime against PvdJ-eGFP alone: 10 to 15%
